Results on 167 variants are retold here after the RNAGym collection of RNA variant scans (doi:10.1093/nar/gkz1192).

The labels stand for the following.
B1: CPEB3 Ribozyme (parent)
chain: UAACAGGGGGCCACAGCAGAAGCGUUCACGUCGCAGCCCCUGUCAGAUUCUGGUGAAUCUGCGAAUUCUGCUGUAUAUCUC

The data set covers variants of B1. Briefly: self-cleavage, relative activity (ratio to wild type); higher = more cleavage; in vitro, sequencing. An outline of the steps: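 Relative activity was defined as the cleaved/total read fraction for a variant divided by the same fraction for the unmutated ribozyme. CPEB3 self-cleaving ribozyme libraries were made by rounds of error-prone PCR, barcoded, and transcribed in vitro with T7 RNA polymerase for 5 hours at 37°C, and cleavage ran through transcription plus a 15 min DNase I step before EDTA. Illumina sequencing of template-switched reverse transcripts gave the reads, and DNA sequencing mapped the barcodes. Averages come from three batches, using variants with at least 5 reads.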
For the variant A21G G46A, the self-cleavage was determined as 0.42.
Turning to G33C U60G, the self-cleavage is 0.12.
Turning to G52C U54A, the self-cleavage was 1.14.
Turning to U1A C23G, the self-cleavage was determined as 0.1.
For the variant A13G C71A, the self-cleavage worked out at 0.25.
As to A28G A64U, the self-cleavage was found to be 0.24.
Take C37U U48C: the self-cleavage was 0.36.
On to U41C G55U, for which the self-cleavage stood at 1.17.
Turning to C12U A47G, the self-cleavage was 1.17.
The same measure for A28C G70U: 0.11.
Consider C4A U51C, for which the self-cleavage is 1.14.
Take G10C A18U: the self-cleavage amounted to 0.12.
Take A18G U51A: the self-cleavage was found to be 0.74.
On to U43C C71A, for which the self-cleavage was determined as 0.36.
In the case of G9C U31C, the self-cleavage came to 0.22.
The figure for C4A U66C is 0.24; for G7A U60C it is 0.11.
C14U G33A: the self-cleavage was found to be 0.21.
A13G A77G: the self-cleavage amounted to 0.69.
U41A U78C: the self-cleavage amounted to 0.26.
For the variant A18C U48A, the self-cleavage was 0.2.
On to U31C U74G, for which the self-cleavage came out at 1.23.
In the case of U49C A75C, the self-cleavage is 0.55.
On to A21G C62G, for which the self-cleavage was found to be 0.22.
As for U41C C68G, the self-cleavage is 0.39.
The figure for A18U C62A is 0.28.
A5U U69A: the self-cleavage is 0.81.
Regarding U31G U58A, the self-cleavage worked out at 0.44.
On to A45G U48C, for which the self-cleavage was 0.29.
The figure for C4U U60A is 0.95; for A15U A21G it is 0.35; for A13U C68A it is 0.54.
On to G7A A75G, for which the self-cleavage came out at 0.3.
Take C29U A77U: the self-cleavage stood at 0.49.
A3U C44U: the self-cleavage is 0.73.
With A15G U25C, the self-cleavage was 0.28.
Take G22U U31C: the self-cleavage was determined as 0.11.
With C50U A64G, the self-cleavage is 0.99.
On to A77U C79A, for which the self-cleavage was found to be 1.26.
Regarding U72C U76A, the self-cleavage turned out to be 1.23.
Turning to G33A G36A, the self-cleavage was 0.07.
As to C68A U80C, the self-cleavage amounted to 0.53.
For the variant U26A U72G, the self-cleavage is 0.83.
For the variant U49A G70A, the self-cleavage is 0.49.
The figure for U49C C81A is 0.76; for A28G A47U it is 0.25.
Regarding A5G U80C, the self-cleavage was 0.66.
For the variant A2U G70C, the self-cleavage came out at 0.31.
Consider G6A U48C, for which the self-cleavage is 0.18.
For A3U A65U, the self-cleavage is 0.14.
On to A15U U49A, for which the self-cleavage was 0.64.
On to A45G U51C, for which the self-cleavage was determined as 0.7.
For G16C U26C, the self-cleavage was 0.23.
The same measure for U49C U66C: 0.25.
The figure for C59A U67A is 0.26; for A45G C71G it is 0.3.
On to U58C A65G, for which the self-cleavage turned out to be 0.27.
U41A U72A: the self-cleavage was 0.23.
A77U U80A: the self-cleavage worked out at 1.18.
U43C G52A: the self-cleavage was 0.92.
On to A28U A57G, for which the self-cleavage is 0.64.
In the case of A2G A3G, the self-cleavage is 1.01.
Consider G10A A65U, for which the self-cleavage was determined as 0.14.
Consider G9U A45G, for which the self-cleavage was 0.11.
On to A3U U67C, for which the self-cleavage was 0.3.
The same measure for C4A U31A: 0.88; for A15U A56G: 0.46.
Regarding G24A G36U, the self-cleavage was found to be 0.1.
The figure for A3U U58C is 0.54; for C39G G70A it is 0.15.
Consider U49A U66C, for which the self-cleavage came out at 0.38.
G10C U26C: the self-cleavage was determined as 0.21.
Regarding A57C A65G, the self-cleavage was determined as 0.17.
The same measure for A18U A20G: 0.34.
G53A C59A: the self-cleavage is 0.58.
Turning to U25A U49G, the self-cleavage is 0.19.
For the variant U48G A75G, the self-cleavage was 0.3.
Regarding C23G U41A, the self-cleavage came out at 0.1.
In the case of C12G A65G, the self-cleavage turned out to be 0.18.
As to A20G C37U, the self-cleavage worked out at 0.62.
The figure for U58G U60A is 0.18; for A15G G33C it is 0.29.
As to G55A U80C, the self-cleavage is 1.09.
In the case of A65U C68U, the self-cleavage is 0.31.
For A65U G73A, the self-cleavage came to 0.29.
The same measure for U41C A47C: 0.46.
Consider C40A U69G, for which the self-cleavage was 0.11.
Regarding A5G G6U, the self-cleavage amounted to 0.23.
Turning to A15U U72C, the self-cleavage worked out at 0.87.
Take C39A U69A: the self-cleavage is 0.22.
For C29U G52U, the self-cleavage was found to be 0.39.
For the variant A15G A28G, the self-cleavage was determined as 0.49.
For the variant U1C A18G, the self-cleavage was determined as 0.48.
The same measure for A5C G30U: 0.24.
For A57G A75U, the self-cleavage was 1.01.
In the case of U41G A75G, the self-cleavage was found to be 0.18.
For G16A A56G, the self-cleavage was 0.4.
Consider G52U U69C, for which the self-cleavage came to 0.73.
The figure for A18U U60A is 0.3; for A18U U60C it is 0.22; for G16A U26A it is 0.34.
For the variant A5U U67A, the self-cleavage turned out to be 0.63.
Consider G16A C27A, for which the self-cleavage was found to be 0.17.
In the case of A5G G61A, the self-cleavage came to 0.49.
On to U26G U51A, for which the self-cleavage was determined as 0.42.
Take G7C U25C: the self-cleavage is 0.27.
Consider G10C U25C, for which the self-cleavage turned out to be 0.07.
The same measure for A45C U72A: 0.38; for A2U U66C: 0.38; for A28G G42A: 0.46.
As for A5C, the self-cleavage was 0.98.
A5U: the self-cleavage was found to be 1.04.
For A13G U76C, the self-cleavage came out at 0.94.
As for A28C, the self-cleavage was 0.56.
G24A C39U: the self-cleavage is 0.17.
In the case of A3U C38G, the self-cleavage turned out to be 0.31.
With C34A A45G, the self-cleavage was found to be 0.37.
As to U48A C71A, the self-cleavage amounted to 0.2.
For the variant A21G A77C, the self-cleavage was 0.63.
Take U25G U78A: the self-cleavage amounted to 0.12.
Regarding G8C A15C, the self-cleavage is 0.29.
Regarding C11A A18C, the self-cleavage turned out to be 0.4.
As for C71A U72A, the self-cleavage amounted to 0.22.
G8U C29U: the self-cleavage came to 0.25.
The figure for A18G U66C is 0.29; for U60G it is 0.48.
Take C4A U67C: the self-cleavage was determined as 0.44.
C17U A56U: the self-cleavage was 0.22.
U41G A64U: the self-cleavage is 0.14.
The same measure for G8A C39A: 0.21; for U1C U51A: 0.8; for A35G G70U: 0.78.
For C38A U72G, the self-cleavage was 0.17.
As for C4U C38A, the self-cleavage came to 0.54.
As to A45U C81U, the self-cleavage was determined as 0.46.
Regarding C11A G24A, the self-cleavage was determined as 0.09.
Take U48C G55C: the self-cleavage came out at 0.36.
G9C G52A: the self-cleavage was found to be 0.55.
The figure for U25A C50A is 0.41.
Consider C40A U51A, for which the self-cleavage came to 0.33.
As to A3G C32A, the self-cleavage amounted to 0.14.
For the variant G63A U67C, the self-cleavage is 0.3.
As to G6A A15U, the self-cleavage turned out to be 0.18.
As for U43C U58G, the self-cleavage worked out at 0.19.
On to C27A U58G, for which the self-cleavage was 0.25.
On to U26C A64U, for which the self-cleavage is 0.26.
Regarding U41G, the self-cleavage was determined as 0.29.
Consider A13C U54G, for which the self-cleavage is 0.71.
For U31G U60A, the self-cleavage worked out at 0.32.
Regarding U58A C62U, the self-cleavage was 0.23.
Take G63U A77G: the self-cleavage is 1.24.
In the case of U41C U78C, the self-cleavage amounted to 1.06.
For the variant C4U A21G, the self-cleavage came to 0.89.
Take A5G C40A: the self-cleavage turned out to be 0.26.
C23A C44U: the self-cleavage worked out at 0.08.
For the variant A3U G42U, the self-cleavage amounted to 0.16.
For the variant C23A U26A, the self-cleavage came out at 0.49.
The figure for A5U A64G is 1.03; for U1C G53U it is 0.72.
Turning to C17G A35U, the self-cleavage worked out at 0.32.
Take U31A C40U: the self-cleavage was determined as 0.27.
For the variant U69C U78C, the self-cleavage worked out at 0.69.
The figure for G19A A56U is 0.12.
The same measure for C12U U74G: 1.25.
The same measure for G22U U60C: 0.07.
For the variant G19A U41C, the self-cleavage amounted to 0.22.
Consider A20G A65C, for which the self-cleavage amounted to 0.13.
